# Measurements: US8247194 (Amgen, dated 2012)
# B1: half-human SCA B32oN-45 (scFv)
# scFv: ELQLVEQSGAALVKPGDSVKMSCKASGYPFTDYIVHWVKQSHGKSLDWIGYINPYSGDTKFNEKFKSKATLTVDKSSSTAYMEFSRLTSEDSAIYYCARSGLIAVYFDYWGQGTTVTVSSGGGGSGGGGSGGGGSELVMTQSPSSVSASVGDRVTIACRASQNIRNILNWYQQRPGKAPQLLIYAASNLQSGVPSRFSGSGSGTDFTLTINSLQPEDFATYYCQQSYSMPRTFGGGTKVEIKTGDYKDDDDKHHHHHH
# notes: Expressed from pComb3H5BFlag/His, which adds the Flag-tag between the SCA and the His6-tag; As a lead it was purified by IMAC and gel filtration; also called maternal SCA B32oN-45
# B2: half-human SCA C33oN-33 (scFv)
# scFv: ELQLVEQSGAALVKPGDSVKMSCKASGYPFTDYIVHWVKQSHGKSLDWIGYINPYSGDTKFNEKFKSKATLTVDKSSSTAYMEFSRLTSEDSAIYYCARSGLIAVYFDYWGQGTTVTVSSGGGGSGGGGSGGGGSELVLTQSPDFQSVTPKEKVTITCRASQSIGSSLHWYQQKPDQSPKLLIKFASQSLSGVPSRFSGSGSGTDFTLTINSLEAEDAATYYCQQSYSTPSTFGPGTKVEIKTGDYKDDDDKHHHHHH
# Assays:
# [1] = target: T1, recombinant human GM-CSF (rhGM-CSF), produced in E. coli (human, UniProt P04141 18-144); experiment: cell-based or functional assay
# [2] = target: T1, recombinant human GM-CSF (rhGM-CSF), …; experiment: SPR, purified SCA over rhGM-CSF coated chip, 1:1 Langmuir fit
# Description: FIG. 36A, B: Kinetic binding analysis of SCA leads derived from the method of the invention, as determined by SPR. Binding kinetics (kd and ka) of the SCA leads were measured injecting 10 μL of purified protein in dilution series ranging from 10 μg/mL to 1 pg/mL purified SCA onto a rhGM-CSF coated sensor chip surface. The dissociation was monitored at 25° C. for 100 sec. Data were fitted using BIAevalution™ software determining the rate constant for dissociation (FIG. 36B) and association (FIG. 36A) kinetics. The residuals corresponding to the fitted data monitoring the deviation from the raw data indicated no systematic deviation for the fit.
# [3] = target: T1, recombinant human GM-CSF (rhGM-CSF), …; experiment: SPR, rhGM-CSF coated chip, 1:1 Langmuir fit, analyte 116 nM
# [4] = target: T1, recombinant human GM-CSF (rhGM-CSF), …; experiment: SPR, rhGM-CSF coated chip, 1:1 Langmuir fit, analyte 347 nM
# [5] = target: T1, recombinant human GM-CSF (rhGM-CSF), …; experiment: SPR, rhGM-CSF coated chip, 1:1 Langmuir fit, analyte 1040 nM
# [6] = target: T1, recombinant human GM-CSF (rhGM-CSF), …; experiment: SPR, rhGM-CSF coated chip, 1:1 Langmuir fit, analyte 12.8 nM
# [7] = target: T1, recombinant human GM-CSF (rhGM-CSF), …; experiment: SPR, rhGM-CSF coated chip, 1:1 Langmuir fit, analyte 3120 nM
# [8] = target: T1, recombinant human GM-CSF (rhGM-CSF), …; experiment: SPR, rhGM-CSF coated chip, 1:1 Langmuir fit, analyte 38.5 nM
# [9] = target: T1, recombinant human GM-CSF (rhGM-CSF), …; experiment: SPR, rhGM-CSF coated chip, 1:1 Langmuir fit, analyte 3120 nM; analyte concentration 3120 nM
# [10] = target: T1, recombinant human GM-CSF (rhGM-CSF), …; experiment: cell-based or functional assay; remark: listed apart in the source
# T1 sequence (P04141 18-144 limits assumed): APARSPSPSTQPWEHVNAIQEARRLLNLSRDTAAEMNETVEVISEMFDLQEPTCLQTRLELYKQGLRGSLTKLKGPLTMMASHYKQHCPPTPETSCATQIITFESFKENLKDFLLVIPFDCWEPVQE
binder,measurement,setting,value
B1,"half maximal inhibition constant (IC50), rhGM-CSF dependent proliferation of TF-1 cells",[1],6 nM
same,Kd,[2],50 nM
same,Ka,[3],1.66e+08 M⁻¹
same,Kd,[3],6.01 nM
same,koff,[3],0.00464 s⁻¹
same,kon,[3],772000 M⁻¹ s⁻¹
same,Ka,[4],9.22e+07 M⁻¹
same,Kd,[4],10.8 nM
same,koff,[4],0.00477 s⁻¹
same,kon,[4],440000 M⁻¹ s⁻¹
same,Ka,[5],1.89e+07 M⁻¹
same,Kd,[5],52.8 nM
same,koff,[5],0.0046 s⁻¹
same,kon,[5],87100 M⁻¹ s⁻¹
same,Ka,[6],3.25e+08 M⁻¹
same,Kd,[6],3.07 nM
same,koff,[6],0.00384 s⁻¹
same,kon,[6],1.25e+06 M⁻¹ s⁻¹
same,Ka,[7],1.06e+07 M⁻¹
same,koff,[7],0.00514 s⁻¹
same,kon,[7],54300 M⁻¹ s⁻¹
same,Ka,[8],2.2e+08 M⁻¹
same,Kd,[8],4.55 nM
same,koff,[8],0.00444 s⁻¹
same,kon,[8],975000 M⁻¹ s⁻¹
same,Kd,[9],94.6 nM
B2,"IC50 (read off the curve), TF-1 proliferation, C33ON-33 dimer",[10],~0.2 µg/mL
same,"IC50 (read off the curve), TF-1 proliferation, C33ON-33 mono",[10],~0.2 µg/mL
